Test results from PMC7615117, “DNSN-1 recruits GINS for CMG helicase assembly during DNA replication initiation in C. elegans” (Science (New York, N.Y.), 2023).

Columns and labels:
Assay in all cases: cryo-EM structure; CMG (125 nM) with fork DNA, AMP-PNP, TIM-1/TIPN-1 and DNSN-1 isoform c (each 1.3-fold molar excess), GraFix gradient with glutaraldehyde and BS3
[1] = biological target: recombinant C. elegans DNSN-1 (C. elegans)
[2] = biological target: T1, MCM-3 (C. elegans, UniProt Q9XVR7 1-812); settings: both partners purified
T1 construct: MCM-3, C. elegans; Subunit of m11, written alone for its contacts in the structure; also called MCM-3 subunit of MCM-2-7; source: S. cerevisiae, purified as part of recombinant CMG
T1 sequence: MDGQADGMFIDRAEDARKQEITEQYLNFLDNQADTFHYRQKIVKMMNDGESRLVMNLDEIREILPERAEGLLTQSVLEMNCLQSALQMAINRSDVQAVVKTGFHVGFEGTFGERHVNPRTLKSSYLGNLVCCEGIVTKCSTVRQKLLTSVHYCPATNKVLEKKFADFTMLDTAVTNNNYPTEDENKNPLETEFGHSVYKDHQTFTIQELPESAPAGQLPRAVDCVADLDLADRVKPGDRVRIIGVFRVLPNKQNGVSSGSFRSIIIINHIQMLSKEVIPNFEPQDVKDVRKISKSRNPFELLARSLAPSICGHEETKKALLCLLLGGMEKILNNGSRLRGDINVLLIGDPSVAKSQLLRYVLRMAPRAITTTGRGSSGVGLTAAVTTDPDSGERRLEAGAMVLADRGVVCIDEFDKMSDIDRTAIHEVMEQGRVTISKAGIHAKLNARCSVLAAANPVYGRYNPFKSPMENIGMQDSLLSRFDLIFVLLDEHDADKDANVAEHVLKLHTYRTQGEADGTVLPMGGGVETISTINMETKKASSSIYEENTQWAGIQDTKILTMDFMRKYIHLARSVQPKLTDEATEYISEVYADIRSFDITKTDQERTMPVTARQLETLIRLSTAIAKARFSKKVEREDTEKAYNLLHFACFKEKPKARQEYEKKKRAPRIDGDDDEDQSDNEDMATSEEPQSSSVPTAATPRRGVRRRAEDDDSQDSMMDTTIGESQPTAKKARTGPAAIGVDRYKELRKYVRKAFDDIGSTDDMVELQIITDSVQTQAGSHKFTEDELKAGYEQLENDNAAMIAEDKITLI

[3] = biological target: T2, MCM-4 (C. elegans, UniProt Q95XQ8 1-823); settings: both partners purified
T2 construct: MCM-4, C. elegans; Subunit of m11, written alone for its interfaces in the structure; source: S. cerevisiae, purified as part of recombinant CMG
T2 sequence: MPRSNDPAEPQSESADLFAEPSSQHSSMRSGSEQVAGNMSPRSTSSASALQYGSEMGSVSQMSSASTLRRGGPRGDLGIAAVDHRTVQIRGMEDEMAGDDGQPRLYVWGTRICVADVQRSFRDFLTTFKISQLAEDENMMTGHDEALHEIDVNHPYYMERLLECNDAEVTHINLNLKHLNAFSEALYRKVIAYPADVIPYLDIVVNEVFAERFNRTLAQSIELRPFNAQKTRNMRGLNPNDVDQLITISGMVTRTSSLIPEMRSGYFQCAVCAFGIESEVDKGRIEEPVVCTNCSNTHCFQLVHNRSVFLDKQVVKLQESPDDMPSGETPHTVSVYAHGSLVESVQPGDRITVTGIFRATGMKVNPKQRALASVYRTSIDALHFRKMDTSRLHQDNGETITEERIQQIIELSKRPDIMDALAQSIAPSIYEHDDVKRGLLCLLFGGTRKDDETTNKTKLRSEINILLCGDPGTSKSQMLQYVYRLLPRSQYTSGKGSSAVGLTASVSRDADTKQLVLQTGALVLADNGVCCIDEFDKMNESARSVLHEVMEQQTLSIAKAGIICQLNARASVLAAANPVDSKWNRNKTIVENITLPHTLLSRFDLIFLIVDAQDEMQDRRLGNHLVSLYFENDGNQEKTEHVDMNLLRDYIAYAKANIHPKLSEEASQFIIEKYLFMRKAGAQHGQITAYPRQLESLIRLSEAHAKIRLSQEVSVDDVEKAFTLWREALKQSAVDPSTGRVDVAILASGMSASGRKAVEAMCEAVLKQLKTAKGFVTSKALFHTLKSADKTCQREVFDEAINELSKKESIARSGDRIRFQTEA

Molecule | stoichiometry N [1] | binding result [2] | binding result [3]
recombinant C. elegans DNSN-1 (natural protein) | 2 | – | –
MCM-7 (natural protein, C. elegans, MCM-7, C. elegans; Subunit of m11, written alone for its interfaces in the structure; source: S. cerevisiae, purified as part of recombinant CMG) MKTTTYNTDWAAEKTKIRSFFDEYYVDNEDGSGKAFPYRDQVFEIARRDKQAIVVNVDHIKESDIPDALELSEAITSNTKRYEVLFKDTISDMIQDYLGDKQAPVIDALDAYMFQRLHMDRNEGAANEEVSLQDKRKKYPPQLLQRFEVYFTTDDAAHETCVRNIKATEIGHLVSMKGVVIRATEVKPCVEVMTYTCDTCAAEVYQPVKGMQFTPPVNCPNKECVEAKANGRLHMQLRGSKFVKFQELKIQELSEQVPVGSIPRTMTVHVYGEMTRKCNTGNVVHVSGVFLPIMQSGFRPTGGLVADTYLEAHYINNLDDNPTFNGVQSAELEVLRRKGDNYETLAASIAPEIFGHVDVKKCLLMALVGGNDNSSNGMKIRGCINVLMMGDPGVAKSQLLGYVNRLAPRSQYTTGRGSSGVGLTAAVMKDPVTGEMSLEGGALVLADGGICCIDEFDKMMDHDRTAIHEVMEQQTISIAKAGIMTTLNARTAIIAAANPAYGRYNPNRSIEQNVDLPAALLSRFDLILLMQDKADRENDKILAEHITYVHQHGCHPNREKKDLISLETLREYISLCKTYTPTVDPALRERIVEAYVEMRRDARYSSDPTFVSPRMILGIVRMATARAKLRLSTIVDESDVEEALRLMQFAKDSLRPEQNKIEKRMAPVDAAFAVLRELYHADNAPIAISNAIQRCARKGISEVALKKCLDQYTANGLLVMDRQNIVFAMN | – | binds | binds
